Results: paper PMC10950897, “VCF1 is a p97/VCP cofactor promoting recognition of ubiquitylated p97-UFD1-NPL4 substrates” (Nature Communications, 2024)

Columns and labels:
[1] = system: p97 (WT, truncations, Y143A); test: In vitro binding, StrepTactin pulldown of Strep-HA-VCF1 with purified p97 proteins; set-up: species or system human
Experimental: (§1) All in vitro binding experiments were performed in EBC or RIPA buffer as indicated. Recombinant Biotin-tagged K48-linked poly-ubiquitin chains (2−7) and K48-linked poly-ubiquitin chains (2−16) were purchased from R&D Systems and Enzo Life Science, respectively. Recombinant proteins were incubated with Strep-Tactin Sepharose (IBA), Glutathione agarose (Gold Biotechnology) or […] Fab-trap agarose (ChromoTek) overnight on an end-over-end rotator at 4 °C, washed six times with EBC or RIPA buffer, and resuspended in 2×Laemmli sample buffer. For p97, VCF1 or p47 pulldowns, antibodies (0.5 µg/sample) were coupled to agarose beads, incubated with recombinant proteins or cell lysates and washed with the indicated buffer. To assess p97-UFD1-NPL4 binding to ubiquitylated proteins in total cell extracts, U2OS cells were lysed in EBC buffer supplemented with protease and phosphatase inhibitors, sonicated and incubated on ice for 10 min. Lysates were cleared by centrifugation for 10 min at 16,100 × g. Cell lysate (40 µg) was added to recombinant proteins in EBC buffer, incubated overnight on the rotator with […] Fab-trap agarose (ChromoTek), and beads were washed six times.

[2] = system: p97; test: IP of endogenous VCF1 from U2OS cells; type: binding, human
Experimental: (§2) Immunoblotting was performed as previously described. Immunoprecipitation (IP) of HA-tagged proteins was performed using Anti-HA Affinity matrix (Roche) under denaturing conditions, unless otherwise stated. GFP-trap and […] Fab-trap agarose (Chromotek) were used according to manufacturer’s instructions. Cell lysis was performed using RIPA buffer (140 mM NaCl; 10 mM Tris-HCl, pH 8.0; 0.1% sodium deoxycholate; 1% Triton X-100; 0.1% SDS; 1 mM EDTA; 0.5 mM EGTA) or EBC buffer (50 mM Tris, pH 7.5; 150 mM NaCl; 1 mM EDTA; 0.5% NP-40, 1 mM DTT). IPs were washed in non-denaturing buffer (50 mM Tris-HCl, pH 7.5; 150 mM NaCl; 0.5 mM EDTA). Cell lysis and IP under partially denaturing conditions were performed using denaturing buffer (20 mM Tris-HCl, pH 7.5; 50 mM NaCl; 0.5% sodium deoxycholate; 0.5% NP-40; 0.5% SDS; 1 mM EDTA). All lysis and wash buffers were supplemented with 1 mM fresh PMSF Protease Inhibitor (Thermo), complete EDTA-free protease inhibitor Cocktail Tablets (Roche), 1.25 mM N-ethylmaleimide (Sigma) and 50 µM PR-619 (Calbiochem).

[3] = system: p97 ATPase; test: ATPase assay; type: biochemical, human; conditions: p97 25 nM; for relative ATPase activity: ATP 375 μM
Experimental: For ATPase assays, 1 ml of 5x assay buffer (250 mM Tris, pH 7.4; 100 mM MgCl2; 5 mM EDTA) was mixed with 3 ml water, 5 μl 0.5 M TCEP and 5 μl 10% Triton X. To 40 ul of this assay buffer, recombinant proteins were added, mixed and incubated for 30 min. Final protein concentrations were as follows: p97 (25 nM), VCF1 (range of 0, 0.025, 1, 10 and 25 nM). The reactions were started by adding 10 μl ATP (final concentration of 375 μM) to the 40 μl reactions in a 96 well plate. After 35 min at room temperature, reactions were stopped by adding 50 μl BIOMOL Green reagent (Enzo Life Sciences). Absorbance at 635 nm was measured after 4 min and the relative ATPase activity calculated. Reactions were performed in duplicates and repeated three times.

[4] = system: p97 with poly-ubiquitylated mEos3.2; test: In vitro p97 unfoldase assay (mEos3.2); type: biochemical, human; conditions: p97 100 nM hexamer, UFD1-NPL4 500 nM, VCF1 300 nM, 37 °C
Experimental: Di-ubiquitin-fused mEos3.2 fluorescent protein (diUb-mEos3.2) and ubiquitylation cascade proteins mUbe1, gpc78-ubc7 fusion and ubiquitin were recombinantly expressed in E. coli and purified as described previously. diUb-mEos3.2 substrate was enzymatically polyubiquitylated as described previously. […] The unfolding activity of p97 was monitored in vitro by measuring the decrease in diUb^n-mEos3.2 fluorescence. For this, diUb^n-mEos3.2 (35 nM), p97 (100 nM hexamer), UFD1-NPL4 (500 nM) and VCF1 (300 nM) were mixed as indicated in Eos assay buffer (50 mM HEPES, pH 7.5; 150 mM KCl; 2 mM MgCl2; 5% glycerol; 1 mM DTT) and pre-warmed to 37 °C for 5 min before ATP (2 mM) was added to start the reaction. Unfolding of red mEos3.2 fluorescence was measured every 15 s in a Varian Cary Eclipse spectrofluorometer (excitation: 500 nm; emission: 520 nm) and normalized to the first value after addition of ATP.

[5] = system: ubiquitin (K48-Ub2-16); test: StrepTactin pulldown of VCF1 with K48-linked ubiquitin chains; ubiquitin interaction alone or in complex with p97; type: binding
Experimental: as §1

[6] = system: C1QBP; histone H3 (U2OS/GFP-VCF1 cells); test: GFP IP immunoblot for C1QBP and Histone H3; type: binding, human; conditions: U2OS/GFP-VCF1 WT
Experimental: as §2

In the case of “VCF1: human FAM104A isoform 1, 186 amino acids (UniProt Q969W3); recombinant Strep-HA-tagged”, the p97 domain bound ([1]; full-length and truncated His6-p97 proteins) is reported as “interacts with the p97 N-domain”, the “in vitro interaction with p97” value ([1]; purified His6-p97 WT, RIPA buffer) is reported as “readily interacted in vitro” and the “interaction of endogenous VCF1 with p97” value ([2]; U2OS whole cell lysates) is reported as “validate an interaction between endogenous VCF1 and p97”. The “endogenous NPL4 in endogenous VCF1 IP” value ([2]; U2OS, along with p97) was “NPL4 could be detected in endogenous VCF1 IPs along with p97”, the “relative ATPase activity” value ([3]; 0.025 nM, replicate 1) was 0.985 and the “relative ATPase activity” value ([3]; 0.025 nM, replicate 2) was 0.875. For the same substance, the “relative ATPase activity” value ([3]; 0.025 nM, replicate 3) was 1.031, the “relative ATPase activity” value ([3]; 1 nM, replicate 1) was 1.071 and the “relative ATPase activity” value ([3]; 1 nM, replicate 2) was 0.934. The “relative ATPase activity” value ([3]; 1 nM, replicate 3) was 0.99, the “relative ATPase activity” value ([3]; 10 nM, replicate 1) was 1.095 and the “relative ATPase activity” value ([3]; 10 nM, replicate 2) was 1.007. The “relative ATPase activity” value ([3]; 10 nM, replicate 3) was 1.066, the “effect on p97 ATPase activity (in words)” value [3] was “had no impact on the ATPase activity of p97 in vitro” and the “effect on p97-UFD1-NPL4-mediated unfolding of mEos3.2” value [4] was “did not accelerate the already highly efficient p97-UFD1-NPL4-mediated unfolding of poly-ubiquitylated mEos3.2 in vitro”. The interaction with ubiquitin [5] was “neither in isolation nor in complex with p97 did VCF1 display detectable interaction with ubiquitin”, the “C1QBP in VCF1 IP” value [6] was “unable to detect C1QBP in VCF1 IPs” and the “interaction with histone H3” value [6] was “weak interaction between VCF1 and histone H3”.
